In patent publication US20130247232A1:

Columns and labels:
[1] = molecular target: MUC5AC (NPC-1 antigen) expressed by LS174T human colorectal tumor cells (human) (UniProt P98088); test: FACS, 2 µg/ml isotype control antibody-FITC on LS174 cells
[2] = molecular target: MUC5AC (NPC-1 antigen) expressed by SW480 human colorectal tumor cells (human) (UniProt P98088); test: flow cytometry on SW480 cells
[3] = molecular target: MUC5AC (NPC-1 antigen) expressed by LS174T human colorectal tumor cells (human) (UniProt P98088); test: flow cytometry on LS174T cells
[4] = molecular target: MUC5AC (NPC-1 antigen) expressed by CFPAC-1 human pancreatic tumor cells (human) (UniProt P98088); test: FACS, 2 µg/ml isotype control antibody-FITC on CFPAC cells
Chain of MUC5AC (NPC-1 antigen) expressed by CFPAC-1 human pancreatic tumor cells (human) (P98088 other isoform, or with tags, fused parts or gaps limits assumed): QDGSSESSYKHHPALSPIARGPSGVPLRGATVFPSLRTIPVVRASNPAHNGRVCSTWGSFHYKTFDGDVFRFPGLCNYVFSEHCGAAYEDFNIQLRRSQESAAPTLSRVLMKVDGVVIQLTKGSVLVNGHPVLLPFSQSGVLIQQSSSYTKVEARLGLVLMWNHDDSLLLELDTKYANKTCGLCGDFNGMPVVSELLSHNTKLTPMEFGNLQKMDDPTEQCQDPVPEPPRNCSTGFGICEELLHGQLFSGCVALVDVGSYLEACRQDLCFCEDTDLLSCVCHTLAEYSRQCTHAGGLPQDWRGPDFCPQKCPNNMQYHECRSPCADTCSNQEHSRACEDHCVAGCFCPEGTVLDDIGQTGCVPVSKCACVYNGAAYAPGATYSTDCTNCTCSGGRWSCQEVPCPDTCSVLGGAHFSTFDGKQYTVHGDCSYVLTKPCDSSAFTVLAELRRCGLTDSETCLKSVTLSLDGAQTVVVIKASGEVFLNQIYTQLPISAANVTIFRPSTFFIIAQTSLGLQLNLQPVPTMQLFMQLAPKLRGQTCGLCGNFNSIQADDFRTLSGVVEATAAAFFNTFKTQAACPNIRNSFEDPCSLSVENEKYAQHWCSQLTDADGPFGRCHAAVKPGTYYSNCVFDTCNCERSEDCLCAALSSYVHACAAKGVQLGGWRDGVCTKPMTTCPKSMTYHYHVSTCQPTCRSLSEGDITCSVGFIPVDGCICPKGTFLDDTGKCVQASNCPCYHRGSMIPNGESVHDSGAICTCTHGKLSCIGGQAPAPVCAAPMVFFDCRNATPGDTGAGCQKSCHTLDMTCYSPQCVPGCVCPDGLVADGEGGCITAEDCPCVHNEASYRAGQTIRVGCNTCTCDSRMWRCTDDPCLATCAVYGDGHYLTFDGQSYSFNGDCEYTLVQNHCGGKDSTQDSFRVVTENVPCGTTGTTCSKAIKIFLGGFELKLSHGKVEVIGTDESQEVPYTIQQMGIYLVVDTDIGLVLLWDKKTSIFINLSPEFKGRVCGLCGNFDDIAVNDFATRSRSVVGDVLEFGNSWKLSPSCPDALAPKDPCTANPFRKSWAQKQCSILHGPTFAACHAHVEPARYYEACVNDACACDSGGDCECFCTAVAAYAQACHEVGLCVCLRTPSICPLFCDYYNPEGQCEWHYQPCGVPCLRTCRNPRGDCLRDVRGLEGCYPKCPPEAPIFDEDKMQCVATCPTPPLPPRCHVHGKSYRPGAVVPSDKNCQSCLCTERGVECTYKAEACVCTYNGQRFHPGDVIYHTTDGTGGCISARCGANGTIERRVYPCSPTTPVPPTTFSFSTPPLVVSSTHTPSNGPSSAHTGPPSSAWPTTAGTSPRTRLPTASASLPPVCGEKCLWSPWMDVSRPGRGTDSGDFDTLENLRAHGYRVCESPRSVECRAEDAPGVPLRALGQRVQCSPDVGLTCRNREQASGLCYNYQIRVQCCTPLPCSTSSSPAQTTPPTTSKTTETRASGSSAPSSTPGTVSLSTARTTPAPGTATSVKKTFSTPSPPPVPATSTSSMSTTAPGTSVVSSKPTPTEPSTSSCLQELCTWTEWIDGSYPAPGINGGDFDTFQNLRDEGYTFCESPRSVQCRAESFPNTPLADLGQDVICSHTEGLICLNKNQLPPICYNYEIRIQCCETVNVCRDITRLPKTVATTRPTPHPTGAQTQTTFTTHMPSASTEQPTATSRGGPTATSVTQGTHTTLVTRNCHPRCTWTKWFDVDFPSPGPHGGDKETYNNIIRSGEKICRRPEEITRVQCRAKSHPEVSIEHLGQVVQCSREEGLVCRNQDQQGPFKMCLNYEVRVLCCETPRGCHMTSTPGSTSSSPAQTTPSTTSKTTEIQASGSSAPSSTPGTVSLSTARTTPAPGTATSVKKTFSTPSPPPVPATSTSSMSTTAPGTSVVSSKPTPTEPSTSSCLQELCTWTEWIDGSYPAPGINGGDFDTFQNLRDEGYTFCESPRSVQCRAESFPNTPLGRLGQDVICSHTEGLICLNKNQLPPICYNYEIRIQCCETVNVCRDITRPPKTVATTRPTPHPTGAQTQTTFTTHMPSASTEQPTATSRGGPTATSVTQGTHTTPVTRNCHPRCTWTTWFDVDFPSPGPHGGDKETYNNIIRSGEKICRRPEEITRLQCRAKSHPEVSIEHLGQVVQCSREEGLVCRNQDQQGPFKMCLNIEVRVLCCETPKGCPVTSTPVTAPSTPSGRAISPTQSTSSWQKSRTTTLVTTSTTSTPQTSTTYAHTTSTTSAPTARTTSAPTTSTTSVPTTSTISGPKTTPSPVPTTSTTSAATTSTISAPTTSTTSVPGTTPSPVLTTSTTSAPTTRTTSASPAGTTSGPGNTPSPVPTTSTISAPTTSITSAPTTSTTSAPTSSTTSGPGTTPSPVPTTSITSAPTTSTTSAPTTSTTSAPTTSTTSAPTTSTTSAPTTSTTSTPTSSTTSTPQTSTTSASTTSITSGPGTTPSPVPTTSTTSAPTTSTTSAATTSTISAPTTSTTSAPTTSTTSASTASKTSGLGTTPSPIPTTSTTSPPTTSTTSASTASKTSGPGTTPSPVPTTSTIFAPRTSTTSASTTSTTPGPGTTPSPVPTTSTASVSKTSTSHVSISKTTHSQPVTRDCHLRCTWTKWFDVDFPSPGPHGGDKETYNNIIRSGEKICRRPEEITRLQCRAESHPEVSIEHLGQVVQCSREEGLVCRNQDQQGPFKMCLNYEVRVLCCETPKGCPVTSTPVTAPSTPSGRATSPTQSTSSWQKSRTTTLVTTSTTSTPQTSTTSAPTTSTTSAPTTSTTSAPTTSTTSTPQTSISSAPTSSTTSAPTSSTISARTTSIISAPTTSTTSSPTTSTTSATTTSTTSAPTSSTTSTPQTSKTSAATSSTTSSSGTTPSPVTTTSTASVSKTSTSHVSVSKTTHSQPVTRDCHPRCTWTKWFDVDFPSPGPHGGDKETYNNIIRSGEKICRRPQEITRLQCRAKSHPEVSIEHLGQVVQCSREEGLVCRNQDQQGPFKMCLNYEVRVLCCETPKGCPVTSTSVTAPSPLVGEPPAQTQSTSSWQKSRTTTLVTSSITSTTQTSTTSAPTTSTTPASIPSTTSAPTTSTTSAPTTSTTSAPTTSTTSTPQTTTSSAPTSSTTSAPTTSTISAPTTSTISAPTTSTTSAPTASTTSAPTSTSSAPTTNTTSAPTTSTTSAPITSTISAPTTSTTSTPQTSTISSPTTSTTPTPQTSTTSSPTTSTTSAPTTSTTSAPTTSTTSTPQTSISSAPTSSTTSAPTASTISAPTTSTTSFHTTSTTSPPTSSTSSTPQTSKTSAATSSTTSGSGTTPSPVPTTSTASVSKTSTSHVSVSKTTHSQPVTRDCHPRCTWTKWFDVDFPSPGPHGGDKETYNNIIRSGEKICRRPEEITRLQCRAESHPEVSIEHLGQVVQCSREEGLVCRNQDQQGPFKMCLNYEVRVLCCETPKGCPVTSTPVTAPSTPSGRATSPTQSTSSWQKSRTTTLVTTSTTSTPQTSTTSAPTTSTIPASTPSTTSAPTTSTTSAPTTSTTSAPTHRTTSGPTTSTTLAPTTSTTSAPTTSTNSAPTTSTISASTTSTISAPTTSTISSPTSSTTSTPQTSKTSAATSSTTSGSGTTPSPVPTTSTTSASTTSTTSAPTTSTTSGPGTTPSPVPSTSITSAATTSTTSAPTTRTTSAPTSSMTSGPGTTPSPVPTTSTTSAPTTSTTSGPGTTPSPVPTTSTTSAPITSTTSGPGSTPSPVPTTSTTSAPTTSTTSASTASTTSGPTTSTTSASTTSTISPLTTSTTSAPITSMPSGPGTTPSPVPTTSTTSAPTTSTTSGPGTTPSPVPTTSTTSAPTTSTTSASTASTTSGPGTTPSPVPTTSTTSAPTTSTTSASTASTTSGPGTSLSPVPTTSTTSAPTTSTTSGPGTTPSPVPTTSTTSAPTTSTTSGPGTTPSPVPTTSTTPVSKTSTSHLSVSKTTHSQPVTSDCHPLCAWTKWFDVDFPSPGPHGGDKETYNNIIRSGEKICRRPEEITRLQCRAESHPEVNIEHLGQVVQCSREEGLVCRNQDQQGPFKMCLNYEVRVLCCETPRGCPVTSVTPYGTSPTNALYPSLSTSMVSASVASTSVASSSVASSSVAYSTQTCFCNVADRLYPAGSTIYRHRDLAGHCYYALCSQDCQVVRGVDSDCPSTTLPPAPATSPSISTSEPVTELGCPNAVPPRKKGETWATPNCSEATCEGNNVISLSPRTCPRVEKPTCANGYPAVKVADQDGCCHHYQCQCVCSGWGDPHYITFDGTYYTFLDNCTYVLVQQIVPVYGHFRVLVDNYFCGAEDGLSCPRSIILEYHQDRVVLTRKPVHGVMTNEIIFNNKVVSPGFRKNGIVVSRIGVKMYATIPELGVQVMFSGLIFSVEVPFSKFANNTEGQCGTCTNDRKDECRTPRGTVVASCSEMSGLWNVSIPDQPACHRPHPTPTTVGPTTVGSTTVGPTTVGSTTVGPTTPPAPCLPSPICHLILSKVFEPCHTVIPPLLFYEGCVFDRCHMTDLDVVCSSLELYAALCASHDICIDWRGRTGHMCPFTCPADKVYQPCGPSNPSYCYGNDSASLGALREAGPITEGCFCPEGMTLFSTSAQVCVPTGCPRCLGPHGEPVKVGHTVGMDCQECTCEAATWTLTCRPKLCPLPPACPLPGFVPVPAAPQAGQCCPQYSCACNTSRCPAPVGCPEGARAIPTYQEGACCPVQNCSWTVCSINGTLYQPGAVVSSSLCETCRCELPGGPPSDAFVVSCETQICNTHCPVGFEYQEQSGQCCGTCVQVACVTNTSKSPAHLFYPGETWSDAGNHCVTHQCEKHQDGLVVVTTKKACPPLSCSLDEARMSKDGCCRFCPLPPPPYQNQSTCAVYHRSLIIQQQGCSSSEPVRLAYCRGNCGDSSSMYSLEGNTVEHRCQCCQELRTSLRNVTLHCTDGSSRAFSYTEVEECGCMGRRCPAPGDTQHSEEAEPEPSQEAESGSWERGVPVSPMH

[5] = molecular target: MUC5AC (NPC-1 antigen) expressed by Colo-205 human colorectal tumor cells (human) (UniProt P98088); test: FACS, 2 µg/ml isotype control antibody-FITC on Colo-205 cells
Chain of MUC5AC (NPC-1 antigen) expressed by Colo-205 human colorectal tumor cells (human) (P98088 other isoform, or with tags, fused parts or gaps limits assumed): as above

[6] = molecular target: MUC5AC (NPC-1 antigen) expressed by SW480 human colorectal tumor cells (human) (UniProt P98088); test: FACS, 2 µg/ml isotype control antibody-FITC on SW480 cells
[7] = molecular target: MUC5AC (NPC-1 antigen) expressed by Colo-205 human colorectal tumor cells (human) (UniProt P98088); test: flow cytometry on Colo-205 cells
[8] = molecular target: MUC5AC (NPC-1 antigen) expressed by CFPAC-1 human pancreatic tumor cells (human) (UniProt P98088); test: flow cytometry on CFPAC-1 cells

Chain of MUC5AC (NPC-1 antigen) expressed by SW480 human colorectal tumor cells (human) (P98088 other isoform, or with tags, fused parts or gaps limits assumed): as above
Chain of MUC5AC (NPC-1 antigen) expressed by LS174T human colorectal tumor cells (human) (P98088 other isoform, or with tags, fused parts or gaps limits assumed, change not shown): as the sequence (P98088 other isoform, or with tags, fused parts or gaps limits assumed) above

Substance: Isotype control antibody
- Percent positive [1]: 3.85%
- mfi [2]: 56 mfi
- mfi [3]: 35 mfi
- Percent positive [4]: 1.79%
- Percent positive [5]: 2.33%
- Percent positive [6]: 3.38%
- mfi [7]: 34 mfi
- mfi [8]: 25 mfi
